{"source": "patent US6703037B1", "about": "“Biodegradable macromers for the controlled release of biologically active substances” (Pelias Technologies, Inc., priority 1997, dated 2004)", "molecules": {"B1": {"name": "bovine somatotropin (protein, UniProt P01246 27-217, looked up)", "Somatotropin": "AFPAMSLSGLFANAVLRAQHLHQLAADTFKEFERTYIPEGQRYSIQNTQVAFCFSETIPAPTGKNEAQQKSDLELLRISLLLIQSWLGPLQFLSRVFTNSLVFGTSDRVYEKLKDLEEGILALMRELEDGTPRAGQILKQTYDKFDTNMRSDDALLKNYGLLSCFRKDLHKTETYLRVMKCRRFGEASCAF", "notes": "bovine somatotropin (MW 20 Kd)"}, "B2": {"name": "ZnbST: ZnbST protein (Monsanto/Protiva) loaded into macromer hydrogels (protein, UniProt P01246 27-217, looked up)", "Somatotropin": "AFPAMSLSGLFANAVLRAQHLHQLAADTFKEFERTYIPEGQRYSIQNTQVAFCFSETIPAPTGKNEAQQKSDLELLRISLLLIQSWLGPLQFLSRVFTNSLVFGTSDRVYEKLKDLEEGILALMRELEDGTPRAGQILKQTYDKFDTNMRSDDALLKNYGLLSCFRKDLHKTETYLRVMKCRRFGEASCAF", "modifications": "zinc complex", "notes": "ZnbST protein (Monsanto/Protiva) loaded into macromer hydrogels"}}, "key": {"male Sprague-Dawley rats": {"system": "male Sprague-Dawley rats", "assay": "Fraction of reticulocytes in rats given EPO (Example 11)", "assay_type": "in vivo, rat", "details": "day 5, Acridine Orange, flow cytometry", "method": "The controlled delivery of active human erythropoeitin (EPO) was confirmed in male Sprague-Dawley rats purchased from Taconic Labs (Germantown, N.Y.). Hydrogel devices were manufactured to contain 3000 Units per device, as described in Example 14. These devices were prepared in the absence of vinyl pyrrolidone, and other polymerizable monovinyl monomers. One of these devices was implanted in each of 3 rats. Three other rats received a subcutaneous injection of EPO (1000 Units) daily for 3 days. A control group of 3 rats received no treatment.\nOn day 5 after implantation of the device or the start of the subcutaneous injections, venous blood samples were obtained from each rat and stored in EDTA. The fraction of reticulocytes (immature red blood cells) was determined after staining with Acridine Orange by automated flow cytometry."}, "[1]": {"assay": "In vitro release of EPO from 3.4KL5 discs, size exclusion chromatography (Example 14)", "assay_type": "physicochemical", "method": "To a sterile 20 mL vial were added: 0.0330 g of TEOA (neat), 1.0076 g of 3.4KL5, 0.0598 g of 1000 ppm eosin (in PBS, pH 7.0), and 2.32 g solution of EPO (10,000 units/mL). No vinyl pyrrolidone, or other polymerizable monovinyl monomer was added. The resulting mixture was mixed and polymerized by light (ILC Technology, Inc. Xenon Light Source with Fiber Optics).\nThe rate of in vitro release was conducted by averaging the release from 3 discs containing an average of 2500 units per disc. The release was conducted in 4 mL of PBS (pH 7.4) at 39° C. The release media was exchanged daily. Analysis was done by size exclusion chromatography. (HPLC: model 2690 by waters, Column: SEC 250 by BioRad, mobile phase: 0.8M TFA in 60% acetonitrile @1.5 mL/min, detector wavelength: 220 nm)."}, "[2]": {"assay": "In vitro release of insulin from 3.4KL5 particles, size exclusion chromatography (Example 15)", "assay_type": "physicochemical", "method": "No vinyl pyrrolidone, or other polymerizable monovinyl monomer was added. The resulting mixture was mixed and placed into 10 mL glass tubes. The tubes were exposed to xenon light (ILC Technology, Inc. Xenon Light Source with Fiber Optics) for 10 seconds. The semi-cured hydrogel was pushed out of the glass tube and further polymerized for 3.5 minutes. The cured hydrogel rods were placed in 15 mL of heptane and ground using a homogenizer (Silverson L4RT-A) for 30 seconds @5000 rpm, followed by 30 seconds @3000 rpm. The heptane was decanted, and the powder was dried under nitrogen.\nParticles (16 mg) were placed in a porous (0.8 mm) “release-bag” (described in Example 5). The in vitro release was calculated by averaging the release from 2 release bags. The release-bag was placed into 2 mL of PBS (pH 7.4) at 39° C. The release media was exchanged every 15 minutes for the first 2 hours and every 30 minutes thereafter. Analysis was done by size exclusion chromatography. (HPLC: model 2690 by waters, Column: SEC 250 by BioRad, mobile phase: 0.8M TFA in 60% acetonitrile @1.5 mL/min, detector wavelength: 220 nm)."}, "[3]": {"assay": "In vitro short term release of insulin from 3.4KL5, SEC-HPLC (Example 6)", "assay_type": "physicochemical", "details": "Zn-Insulin 47% loading in 3.4KL5", "method": "Device Preparation: A degradable macromer (3.4KL5) was used. […] The protein was loaded at a loading of 47%, based on dry weight. Three samples were prepared.\nThe samples were prepared as described in Example 4. The samples were analyzed by SEC-HPLC for the detection of monomers, dimers and soluble aggregates, using the conditions described in Example 5."}, "hypophysectomized rats [4]": {"system": "hypophysectomized rats", "assay": "Growth of hypophysectomized rats given hGH (Example 13)", "assay_type": "in vivo, rat", "details": "hypophysectomized female rats; initial results", "excerpt": "The controlled delivery of active human growth hormone (hGH, MW 20 Kd) was confirmed in the hypophysectomized rat model. Hypophysectomized female rats purchased from Taconic Labs (Germantown, N.Y.) were weighed each morning. Prior to the initiation of the study the rats were held 7 days to confirm lack of growth. The rats were divided into 3 groups of equal mean weights. Group 1 remained untreated and served as a negative control. Group 2 received an implant of hGH in a hydrogel made of a 3:1 blend of 3.4KL5 and 3.4KC6 (each device contained approximately 1 mg of hGH). The rats in Group 3 were injected with 100 μg hGH subcutaneously each day for the duration of the study."}, "hypophysectomized rats [5]": {"system": "hypophysectomized rats", "assay": "Growth of hypophysectomized rats given bST (Example 9)", "assay_type": "in vivo, rat", "details": "hypophysectomized female rats, 118±1.5 grams on day 1; mean±sem", "excerpt": "The controlled delivery of active bovine somatotropin (MW 20 Kd) was confirmed in the hypophysectomized rat model. Hypophysectomized female rats were purchased from Taconic Labs (Germantown, N.Y.). The rats were weighed each morning. Prior to the initiation of the study, the rats were held 7 days to confirm lack of growth. On day 1 of the study the rats weighed 118±1.5 grams (mean±sem, n=18). The rats were divided into 3 groups of equal mean weights. Group 1 remained untreated and served as a negative control. Group 2 received an implant of bST in a hydrogel made of a blend of 3:1 of 3.4KL5 and PEGDA (each device contained 0.9 to 1.1 mg of bST). The rats in Group 3 were injected with 100 μg bST subcutaneously each day for the duration of the study."}, "[6]": {"assay": "In vitro release of bST from 3.4KL5/PEG-diacrylate blend discs, SEC-HPLC (Example 5)", "assay_type": "physicochemical", "method": "Device Preparation: A blend of a degradable macromer (3.4KL5) and a non-degradable macromer (PEG-diacrylate, MW 3,400) was used. The protein used was ZnbST (Monsanto/Protiva). The protein was loaded at a loading of 20%, based on dry weight. 3 samples were prepared, as follows.\nSample preparation: 20 μL of the bST-precursor solution were prepared, as described in Example 1. The mixture was pipetted using a positive displacement pipette with a silanized glass tip. The solution was placed onto a silanized glass slide. Using pieces of plastic sheets with thicknesses of about 0.4±0.2 mm as spacers, another silanized glass slide was placed on top and held firmly in place using binder clips. A light source (ILC Technology, Inc. Xenon Light Source with Fiber Optics) was adjusted to about a 5-cm distance from the glass slide using clamps and a stand. The center of the disc was illuminated; both sides of the disc were illuminated, for two minutes each.\nThe clips, the glass slide, and the spacers were carefully removed. With a spatula and tweezers, the discs were removed and weighed on a clean, tared silanized glass slide. The disc was placed into a heat-sealed membrane bag, as described in more detail below. One 20 μL disc was placed in each bag. The bag was heat-sealed, placed in 2.0 mL of phosphate buffer release media (0.01% NaN3, 0.05M PBS, pH 7.4), placed on an orbital shaker turning at 100 rpm, and incubated at 39° C.\nFor each time point, the bag was placed into fresh 2.0 mL of PBS Release Media. Samples were collected for analysis every day for as long as the bST was being released.\nMembrane bags were prepared as follows. Membrane sheets were cut into pieces of approximately 7×2.5 cm. The sheets were folded in half. Using a Bunsen burner or a propane torch, a spatula was heated until it became red. The edges of the sheets were aligned, and the side of the membrane was cut with the […] to seal the sides. […]\nThe samples were analyzed daily by SEC-HPLC. Monomers, dimers, and soluble aggregates could be detected using this method. […]"}, "[7]": {"assay": "Release of bST from cylindrical hydrogel devices of large and small diameter, HPLC (Example 10)", "assay_type": "physicochemical", "method": "A macromer mixture containing approximately 30% (w/w) of bST was prepared using the methods described above. The macromer/protein mixture was put in a glass cylinder having an internal diameter of either 1.12 mm or 0.61 mm. The system was exposed to light for 20 seconds, removed from the glass cylinder, placed on aluminum foil, and exposed to light for an additional 3.5 minutes. The resulting hydrogel cylinders were placed in 1 mL of release media (PBS, pH 7.4), and the released bST was monitored by HPLC. […] In addition, the characteristics of the bST release indicated degradation/swelling of a controlled system. […] For n=0.5, the drug release follows a Fickian-diffusion mechanism. For n>0.5, non-Fickian behavior was observed.\nIn a different analysis based only on diffusion, the flux from the cylinder was analyzed using the following Fickian equation: J=D*A*ΔC/ΔX, where J is the flux; D is the diffusion constant; A is the surface area; C is the concentration in the cylinder; and […] from the center. In this analysis the flux should differ dramatically whether the release occurred from either a large or a small diameter cylinder. Theoretical analysis predicted that under Fickian diffusion, when the smaller diameter cylinder released 20%, the larger diameter cylinder would release 7% of the incorporated drug. […]"}, "[8]": {"assay": "In vitro release of ZnbST from 50:50 blend of 3.4KL5 and 3.4KC6, SEC-HPLC (Example 7)", "assay_type": "physicochemical", "details": "25% loading in 50:50 blend of 3.4KL5 and 3.4KC6", "method": "Devices were prepared as describe above. Macromers containing a blend of a soluble macromer (3.4KL5) and an insoluble macromer (3.4KC6) were used in a ratio of 50:50. The protein used was ZnbST (Protiva/Monsanto); it was loaded at a loading of 25%, based on dry weight. Six samples were prepared. The samples were analyzed by SEC-HPLC, as described above. The samples were monitored for the presence of monomers, dimers and soluble aggregates."}, "[9]": {"assay": "In vitro release of ZnbST from 75:25 blend of 3.4KL5 and 3.4KC6, SEC-HPLC (Example 8)", "assay_type": "physicochemical", "method": "Devices were prepared as describe above. A blend of a soluble macromer (3.4KL5) and an insoluble macromer (3.4KC6) were used, in a ratio of 75:25. The protein ZnbST (Protiva/Monsanto) was loaded at a loading of 25%, based on dry weight. Six samples were prepared. The samples were analyzed by SEC-HPLC to detect monomers, dimers, and soluble aggregates, as described above."}}}
{"molecule": "EPO: human erythropoeitin", "values": [{"measurement": "reticulocytes", "setting": "male Sprague-Dawley rats", "value": "about 19%"}, {"measurement": "EPO still being released", "setting": "[1]; after 120 hours", "value": "over 500 units"}, {"measurement": "period over which EPO was released", "setting": "[1]; average 2500 units per disc, PBS pH 7.4, 39° C.", "value": "at least 120 hours"}]}
{"molecule": "Insulin: Zn-Insulin / insulin purchased from Sigma, loaded into 3.4KL5", "values": [{"measurement": "period over which insulin was released", "setting": "[2]; 3.4KL5 particles (16 mg) in release-bag, PBS pH 7.4, 39° C.", "value": 90, "unit": "min"}, {"measurement": "insulin still being released", "setting": "[2]; after 90 minutes, 3.4KL5 particles", "value": 100, "unit": "µg"}, {"measurement": "dimers or soluble aggregates", "setting": "[3]; SEC-HPLC", "value": "no dimers or soluble aggregates were detected"}, {"measurement": "release achieved (complete release)", "setting": "[3]; within 24 hours", "value": 100, "unit": "%"}]}
{"molecule": "hGH: human growth hormone (MW 20 Kd)", "values": [{"measurement": "growth of the rats", "setting": "hypophysectomized rats [4]", "value": "exhibited continued growth"}]}
{"molecule": "B1", "values": [{"measurement": "body weight after 11 days", "setting": "hypophysectomized rats [5]", "value": "151±4", "unit": "grams"}, {"measurement": "initial release on each of the first two days", "setting": "[6]; ZnbST 20% loading in blend of 3.4KL5 and PEG-diacrylate", "value": 12, "unit": "%"}, {"measurement": "period over which bST was released", "setting": "[6]; ZnbST 20% loading in blend of 3.4KL5 and PEG-diacrylate MW 3,400, PBS pH 7.4, 39° C.", "value": 14, "unit": "days"}, {"measurement": "dimers or soluble aggregates in the release media", "setting": "[6]; ZnbST 20% loading in blend of 3.4KL5 and PEG-diacrylate, SEC-HPLC", "value": "No detectable levels"}, {"measurement": "exponent n characteristic of the mode of transport", "setting": "[7]; both cylinders, n>0.5 = non-Fickian", "value": 2}, {"measurement": "incorporated drug released by the larger diameter cylinder (observed)", "setting": "[7]; when the smaller diameter cylinder released 20%", "value": 16, "unit": "%"}]}
{"molecule": "B2", "values": [{"measurement": "initial burst release", "setting": "[8]", "value": "no initial burst release was observed"}, {"measurement": "period over which ZnbST was released", "setting": "[8]", "value": 20, "unit": "days"}, {"measurement": "concentrations of dimers or soluble aggregates", "setting": "[8]; SEC-HPLC", "value": "less than 2%"}, {"measurement": "period over which ZnbST was released", "setting": "[9]; 25% loading in 75:25 blend of 3.4KL5 and 3.4KC6", "value": 17, "unit": "days"}, {"measurement": "dimer or aggregate released", "setting": "[9]; 75:25 blend of 3.4KL5 and 3.4KC6, SEC-HPLC", "value": "Very little"}, {"measurement": "incorporated ZnbST released", "setting": "[9]; within 13 days of release, 75:25 blend of 3.4KL5 and 3.4KC6", "value": 90, "unit": "%"}]}
